Test results taken from US20220389111A1 (SHANGHAI EPIMAB BIOTHERAPEUTICS, published 2022).

T1: human CD39 protein (recombinant) (human, UniProt P49961 38-478, limits assumed)
T1 sequence: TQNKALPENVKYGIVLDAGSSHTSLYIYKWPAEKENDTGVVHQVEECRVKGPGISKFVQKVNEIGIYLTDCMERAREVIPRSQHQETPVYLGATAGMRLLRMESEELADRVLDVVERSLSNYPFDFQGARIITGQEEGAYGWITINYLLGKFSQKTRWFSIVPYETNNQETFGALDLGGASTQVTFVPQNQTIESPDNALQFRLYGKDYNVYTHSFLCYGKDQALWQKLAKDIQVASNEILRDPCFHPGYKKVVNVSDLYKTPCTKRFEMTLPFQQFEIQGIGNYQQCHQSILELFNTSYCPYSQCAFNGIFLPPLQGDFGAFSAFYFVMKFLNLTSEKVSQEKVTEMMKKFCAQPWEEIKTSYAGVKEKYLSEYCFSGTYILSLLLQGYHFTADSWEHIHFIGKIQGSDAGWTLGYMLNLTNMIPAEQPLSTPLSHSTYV


Columns and labels:
[1] = biological target: T1, human CD39 protein (recombinant); experiment: cell-based or functional assay
[2] = biological target: T1, human CD39 protein (recombinant); experiment: ELISA on coated human CD39 protein
Description: To determine if anti-CD39 mAbs bind to human CD39, ELISA plates were incubated overnight at 4° C. with human CD39 protein or mouse CD39 protein diluted in PBS, pH7.4 buffer at 1 μg/ml. Plates were washed four times in washing buffer (PBS containing 0.05% Tween 20), and blocked for 1 hour at 37° C. with 200 μl per well blocking buffer (1% BSA in PBS containing 0.05% Tween 20). After blocking buffer was removed, hybridoma supernatant or diluted purified Abs were added to the wells at 100 μl per well and incubated at 37° C. for 1 hour. The wells were washed four times with washing buffer, and anti-mouse HRP (for mouse anti-human CD39 Ab characterization) or anti-rat HRP (for rat anti-mouse CD39 Ab characterization) (Sigma) were 1:5000 diluted and added to the wells at 100 μl per well. The plates were incubated for 1 hour at 37° C. and washed four times in washing buffer. 100 μl of tetramethylbenzidine (TMB) chromogenic solution were added per well. Following color development, the reaction was stopped with 1N HCl, and absorbance at 450 nm was measured. The data were proceeded by GraphPad software.
Humanized antibodies HuEM04-38-6 to HuEM0004-38-20 and chimeric antibodies EM04-38c, EM004-38c1, and EM0004-38c2 were tested for CD39 specific binding by ELISA as described in Example 1.2 and for inhibition of protein-based ATPase activity as described in Example 1.3.

Binder | ATPase inhibition IC50 [1] | ATPase inhibition, inhibition % [1] | EC50 [2]
HuEM0004-38-6 (antibody, human IgG1, kappa, L234A L235A, V domains shown) VH: EVQLVQSGAEVKKPGASVKVSCKASGYTFTSFWMHWVRQAPGQGLEWMGNINPRNGATKYNEKFRSRVTMTADTSISTAYMELSRLRSDDTAVYYCAREDYDEIYYAMDSWGQGTTVTVSS VL: ENVLTQSPATLSLSPGERATLSCSASSSVIYMYWFQQKPGQAPRLLIYDTSNLASGIPARFSGSGSGTDYTLTISSLEPEDFAVYYCQQWSTYPLTFGQGTKLEIKR | 140 nM | 64.1% | –
HuEM0004-38-13 (antibody, human IgG1, kappa, L234A L235A, V domains shown, humanized mAb638, human IgG1/kappa) VH: EVQLVQSGAEVKKPGASVKVSCKASGYTFTSFWMHWVRQAPGQGLEWMGNINPRNGATKYNEKFRSRVTLTADKSISTAYMELSRLRSDDTAVYYCAREDYDEIYYAMDSWGQGTTVTVSS VL: ENVLTQSPATLSLSPGERATLSCSASSSVIYMYWFQQKPGQSPRVLIYDTSNLASGIPARFSGSGSGTDYTLTISSLEPEDFAVYYCQQWSTYPLTFGQGTKLEIKR | 36.2 nM | 98.7% | 0.023 µg/mL
HuEM0004-38-7 (antibody, human IgG1, kappa, L234A L235A, V domains shown, humanized mAb638, human IgG1/kappa) VH: EVQLVQSGAEVKKPGASVKVSCKASGYTFTSFWMHWVRQAPGQGLEWMGNINPRNGATKYNEKFRSRVTMTADKSISTAYMELSRLRSDDTAVYYCAREDYDEIYYAMDSWGQGTTVTVSS VL: ENVLTQSPATLSLSPGERATLSCSASSSVIYMYWFQQKPGQAPRLLIYDTSNLASGIPARFSGSGSGTDYTLTISSLEPEDFAVYYCQQWSTYPLTFGQGTKLEIKR | 83.5 nM | 71.4% | 0.149 µg/mL
HuEM0004-38-8 (antibody, human IgG1, kappa, L234A L235A, V domains shown, humanized mAb638, human IgG1/kappa) VH: EVQLVQSGAEVKKPGASVKVSCKASGYTFTSFWMHWVRQAPGQGLEWMGNINPRNGATKYNEKFRSRVTLTADKSISTAYMELSRLRSDDTAVYYCAREDYDEIYYAMDSWGQGTTVTVSS VL: ENVLTQSPATLSLSPGERATLSCSASSSVIYMYWFQQKPGQAPRLLIYDTSNLASGIPARFSGSGSGTDYTLTISSLEPEDFAVYYCQQWSTYPLTFGQGTKLEIKR | 81.8 nM | 67.9% | 0.097 µg/mL
HuEM0004-38-10 (antibody, human IgG1, kappa, L234A L235A, V domains shown, humanized mAb638, human IgG1/kappa) VH: EVQLVQSGAEVKKPGASVKVSCKASGYTFTSFWMHWVRQAPGQGLEWIGNINPRNGATKYNEKFRSKVTLTADKSISTAYMELSRLRSDDTAVYYCAREDYDEIYYAMDSWGQGTTVTVSS VL: ENVLTQSPATLSLSPGERATLSCSASSSVIYMYWFQQKPGQAPRLLIYDTSNLASGIPARFSGSGSGTDYTLTISSLEPEDFAVYYCQQWSTYPLTFGQGTKLEIKR | 83.2 nM | 71.5% | 0.175 µg/mL
HuEM0004-38-11 (antibody, human IgG1, kappa, L234A L235A, V domains shown, humanized mAb638, human IgG1/kappa) VH: EVQLVQSGAEVKKPGASVKVSCKASGYTFTSFWMHWVRQAPGQGLEWMGNINPRNGATKYNEKFRSRVTMTADTSISTAYMELSRLRSDDTAVYYCAREDYDEIYYAMDSWGQGTTVTVSS VL: ENVLTQSPATLSLSPGERATLSCSASSSVIYMYWFQQKPGQSPRVLIYDTSNLASGIPARFSGSGSGTDYTLTISSLEPEDFAVYYCQQWSTYPLTFGQGTKLEIKR | 65.3 nM | 99.6% | 0.021 µg/mL
HuEM0004-38-12 (antibody, human IgG1, kappa, L234A L235A, V domains shown, humanized mAb638, human IgG1/kappa) VH: EVQLVQSGAEVKKPGASVKVSCKASGYTFTSFWMHWVRQAPGQGLEWMGNINPRNGATKYNEKFRSRVTMTADKSISTAYMELSRLRSDDTAVYYCAREDYDEIYYAMDSWGQGTTVTVSS VL: ENVLTQSPATLSLSPGERATLSCSASSSVIYMYWFQQKPGQSPRVLIYDTSNLASGIPARFSGSGSGTDYTLTISSLEPEDFAVYYCQQWSTYPLTFGQGTKLEIKR | 46.9 nM | 103% | 0.023 µg/mL
HuEM0004-38-14 (antibody, human IgG1, kappa, L234A L235A, V domains shown, humanized mAb638, human IgG1/kappa) VH: EVQLVQSGAEVKKPGASVKVSCKASGYTFTSFWMHWVRQAPGQGLEWIGNINPRNGATKYNEKFRSRVTLTADKSISTAYMELSRLRSDDTAVYYCAREDYDEIYYAMDSWGQGTTVTVSS VL: ENVLTQSPATLSLSPGERATLSCSASSSVIYMYWFQQKPGQSPRVLIYDTSNLASGIPARFSGSGSGTDYTLTISSLEPEDFAVYYCQQWSTYPLTFGQGTKLEIKR | 36.9 nM | 98.9% | 0.021 µg/mL
HuEM0004-38-15 (antibody, human IgG1, kappa, L234A L235A, V domains shown, humanized mAb638, human IgG1/kappa) VH: EVQLVQSGAEVKKPGASVKVSCKASGYTFTSFWMHWVRQAPGQGLEWIGNINPRNGATKYNEKFRSKVTLTADKSISTAYMELSRLRSDDTAVYYCAREDYDEIYYAMDSWGQGTTVTVSS VL: ENVLTQSPATLSLSPGERATLSCSASSSVIYMYWFQQKPGQSPRVLIYDTSNLASGIPARFSGSGSGTDYTLTISSLEPEDFAVYYCQQWSTYPLTFGQGTKLEIKR | 40.9 nM | 97.6% | 0.031 µg/mL
HuEM0004-38-16 (antibody, human IgG1, kappa, L234A L235A, V domains shown, humanized mAb638, human IgG1/kappa) VH: EVQLVQSGAEVKKPGASVKVSCKASGYTFTSFWMHWVRQAPGQGLEWMGNINPRNGATKYNEKFRSRVTMTADTSISTAYMELSRLRSDDTAVYYCAREDYDEIYYAMDSWGQGTTVTVSS VL: ENVLTQSPATLSLSPGERATLSCSASSSVIYMYWFQQKPGQSPRVLIYDTSNLASGVPARFSGSGSGTDYTLTISSLEPEDFAVYYCQQWSTYPLTFGQGTKLEIKR | 41 nM | 102% | 0.027 µg/mL
HuEM0004-38-17 (antibody, human IgG1, kappa, L234A L235A, V domains shown, humanized mAb638, human IgG1/kappa) VH: EVQLVQSGAEVKKPGASVKVSCKASGYTFTSFWMHWVRQAPGQGLEWMGNINPRNGATKYNEKFRSRVTMTADKSISTAYMELSRLRSDDTAVYYCAREDYDEIYYAMDSWGQGTTVTVSS VL: ENVLTQSPATLSLSPGERATLSCSASSSVIYMYWFQQKPGQSPRVLIYDTSNLASGVPARFSGSGSGTDYTLTISSLEPEDFAVYYCQQWSTYPLTFGQGTKLEIKR | 20.4 nM | 103% | 0.044 µg/mL
HuEM0004-38-18 (antibody, human IgG1, kappa, L234A L235A, V domains shown, humanized mAb638, human IgG1/kappa) VH: EVQLVQSGAEVKKPGASVKVSCKASGYTFTSFWMHWVRQAPGQGLEWMGNINPRNGATKYNEKFRSRVTLTADKSISTAYMELSRLRSDDTAVYYCAREDYDEIYYAMDSWGQGTTVTVSS VL: ENVLTQSPATLSLSPGERATLSCSASSSVIYMYWFQQKPGQSPRVLIYDTSNLASGVPARFSGSGSGTDYTLTISSLEPEDFAVYYCQQWSTYPLTFGQGTKLEIKR | 18.9 nM | 98.5% | 0.019 µg/mL
HuEM0004-38-19 (antibody, human IgG1, kappa, L234A L235A, V domains shown, humanized mAb638, human IgG1/kappa) VH: EVQLVQSGAEVKKPGASVKVSCKASGYTFTSFWMHWVRQAPGQGLEWIGNINPRNGATKYNEKFRSRVTLTADKSISTAYMELSRLRSDDTAVYYCAREDYDEIYYAMDSWGQGTTVTVSS VL: ENVLTQSPATLSLSPGERATLSCSASSSVIYMYWFQQKPGQSPRVLIYDTSNLASGVPARFSGSGSGTDYTLTISSLEPEDFAVYYCQQWSTYPLTFGQGTKLEIKR | 33.2 nM | 99.2% | 0.02 µg/mL
HuEM0004-38-20 (antibody, human IgG1, kappa, L234A L235A, V domains shown, humanized mAb638, human IgG1/kappa) VH: EVQLVQSGAEVKKPGASVKVSCKASGYTFTSFWMHWVRQAPGQGLEWIGNINPRNGATKYNEKFRSKVTLTADKSISTAYMELSRLRSDDTAVYYCAREDYDEIYYAMDSWGQGTTVTVSS VL: ENVLTQSPATLSLSPGERATLSCSASSSVIYMYWFQQKPGQSPRVLIYDTSNLASGVPARFSGSGSGTDYTLTISSLEPEDFAVYYCQQWSTYPLTFGQGTKLEIKR | 27.3 nM | 100% | 0.031 µg/mL
EM0004-38c (antibody, human IgG1, kappa, L234A L235A, V domains shown, chimeric mAb638; also called EM04-38c) VH: QVQLQQPGTELVKPGASVKLSCKASGYTFTSFWMHWVKQRPGQGLEWIGNINPRNGATKYNEKFRSKVTLTADKTSSTAYMHLSSLTSEDSAVYYCAREDYDEIYYAMDSWGQGTSVTVSS VL: QNVLTQSPAIMSASPGEKVTMTCSASSSVIYMYWFQQKPGSSPRVLIYDTSNLASGVPARFSGSGSGTSYSLTISRMEAEDAATYYCQQWSTYPLTFGAGTKLELKR | 24.2 nM | 107% | 0.014 µg/mL
HuEM0004-38-9 (antibody, human IgG1, kappa, L234A L235A, V domains shown) VH: EVQLVQSGAEVKKPGASVKVSCKASGYTFTSFWMHWVRQAPGQGLEWIGNINPRNGATKYNEKFRSRVTLTADKSISTAYMELSRLRSDDTAVYYCAREDYDEIYYAMDSWGQGTTVTVSS VL: ENVLTQSPATLSLSPGERATLSCSASSSVIYMYWFQQKPGQAPRLLIYDTSNLASGIPARFSGSGSGTDYTLTISSLEPEDFAVYYCQQWSTYPLTFGQGTKLEIKR | 79.6 nM | 61.6% | –
